# In patent publication US20220089647A1 (FUJIFILM, published 2022):
# Starred links: 1 amine or outer side, 2 acyl side, 3 side chain; linkers in the order of their positions; H or OH if unused. Positions of bridges follow the written chain, without caps; N, C: chain ends. Non-standard residues stand in square brackets, D forms with d. Primed or numbered codes have the meaning given here. No end group written: not given here. Dab(acetyl)″ = 2-amino-4-(acetylamino)butanoic acid, acetyl CH3 carbon bonded to the S of Hcy (S-CH2-C(=O)-NH-), O=C(C[*:3])NCC[C@H](N[*:1])C(=O)[*:2]; Dab(acetyl) = 2-amino-4-acetylamino-butanoic acid residue (N-γ-acetyl-diaminobutyric acid), CC(=O)NCC[C@H](N[*:1])C(=O)[*:2]; Dap(acetyl) = 2-amino-3-acetylamino-propanoic acid residue, CC(=O)NC[C@H](N[*:1])C(=O)[*:2]; COCH2 = acetyl group that carries the bridge; hCys = N[C@@H](CCS)C(=O)O; Dab = NCC[C@H](N)C(=O)O
# Biological target: T1, human integrin αvβ5 (human, UniProt P06756 31-992; P18084 24-719, limits assumed)
# T1 construct: Heterodimer flowed as analyte at 30, 100, 300 and 1,000 nM in HEPES buffer with 5 mM MgCl2
# Experiment: SPR, Biacore 3000, peptide immobilised; A = KD 50 nM or less
# T1 sequence (P06756 31-992 limits assumed, chain 1 of 2): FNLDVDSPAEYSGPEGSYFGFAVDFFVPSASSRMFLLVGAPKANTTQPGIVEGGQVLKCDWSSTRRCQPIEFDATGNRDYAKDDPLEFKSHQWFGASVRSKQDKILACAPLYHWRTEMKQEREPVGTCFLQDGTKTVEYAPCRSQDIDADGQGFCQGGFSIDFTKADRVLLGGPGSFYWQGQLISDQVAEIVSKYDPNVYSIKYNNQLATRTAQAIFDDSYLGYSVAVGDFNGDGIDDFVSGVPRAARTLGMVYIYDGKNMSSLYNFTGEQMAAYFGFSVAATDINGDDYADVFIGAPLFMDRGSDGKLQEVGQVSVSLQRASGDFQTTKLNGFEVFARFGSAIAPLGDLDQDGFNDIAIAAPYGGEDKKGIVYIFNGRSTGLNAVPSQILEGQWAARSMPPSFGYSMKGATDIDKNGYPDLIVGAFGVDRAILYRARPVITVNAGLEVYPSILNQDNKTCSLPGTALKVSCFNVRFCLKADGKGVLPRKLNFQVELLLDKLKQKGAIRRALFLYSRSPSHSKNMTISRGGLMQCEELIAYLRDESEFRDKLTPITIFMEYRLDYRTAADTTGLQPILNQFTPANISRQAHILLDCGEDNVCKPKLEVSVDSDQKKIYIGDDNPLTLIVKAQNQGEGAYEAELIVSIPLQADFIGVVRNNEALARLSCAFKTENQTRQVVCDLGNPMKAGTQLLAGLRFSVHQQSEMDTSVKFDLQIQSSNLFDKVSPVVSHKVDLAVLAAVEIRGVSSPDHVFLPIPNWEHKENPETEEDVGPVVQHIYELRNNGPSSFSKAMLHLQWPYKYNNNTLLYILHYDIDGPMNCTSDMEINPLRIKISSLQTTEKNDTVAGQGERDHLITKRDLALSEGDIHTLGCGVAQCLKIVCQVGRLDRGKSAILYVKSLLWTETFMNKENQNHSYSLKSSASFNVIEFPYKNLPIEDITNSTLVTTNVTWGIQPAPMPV
# T1 sequence (P18084 24-719 limits assumed, chain 2 of 2): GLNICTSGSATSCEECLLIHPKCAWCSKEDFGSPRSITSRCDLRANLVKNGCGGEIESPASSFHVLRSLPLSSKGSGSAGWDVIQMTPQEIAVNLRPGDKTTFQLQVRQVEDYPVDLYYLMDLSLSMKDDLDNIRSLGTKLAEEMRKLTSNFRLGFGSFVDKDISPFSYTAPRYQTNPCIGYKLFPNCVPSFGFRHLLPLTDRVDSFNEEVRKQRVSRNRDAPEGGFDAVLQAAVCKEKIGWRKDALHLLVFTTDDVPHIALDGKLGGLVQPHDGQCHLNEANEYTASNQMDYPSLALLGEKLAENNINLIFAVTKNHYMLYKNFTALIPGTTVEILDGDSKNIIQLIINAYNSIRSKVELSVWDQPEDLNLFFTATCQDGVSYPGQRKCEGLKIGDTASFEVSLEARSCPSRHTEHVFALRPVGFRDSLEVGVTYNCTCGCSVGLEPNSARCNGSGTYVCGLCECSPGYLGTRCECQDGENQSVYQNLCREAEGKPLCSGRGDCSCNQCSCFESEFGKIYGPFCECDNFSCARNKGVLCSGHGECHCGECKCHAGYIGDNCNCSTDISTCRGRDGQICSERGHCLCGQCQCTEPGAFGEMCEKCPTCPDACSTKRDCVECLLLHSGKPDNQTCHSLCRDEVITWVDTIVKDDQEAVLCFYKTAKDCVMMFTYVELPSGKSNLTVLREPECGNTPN
row,Binder,dissociation constant (KD) [nM]
1,KKKA[hCys]TPRGDTFA[Dab](COCH2)A (thioether 5-14) [Cyclic peptide 160],≤ 50
2,KKK[hCys]DPRGDTFA[Dab(acetyl)] (thioether 4-13) [Cyclic peptide 144],≤ 50
3,KKK[hCys]EPRGDTFA[Dab(acetyl)] (thioether 4-13) [Cyclic peptide 145],≤ 50
4,KKK[hCys]LPRGDTFA[Dab(acetyl)] (thioether 4-13) [Cyclic peptide 146],≤ 50
5,KKK[hCys]TPRGDTFA[Dab(acetyl)] (thioether 4-13) [Cyclic peptide 147],≤ 50
6,KKK[hCys]YPRGDTFA[Dab(acetyl)] (thioether 4-13) [Cyclic peptide 148],≤ 50

# Biological target: T1, human integrin αvβ5
# Experiment: SPR, Biacore 3000, peptide immobilised; B = KD more than 50 nM and 100 nM or less
# Description: However, only for the cyclic peptides 125, 126, and 127, in which the number of lysine residues having an amino group as the immobilizing functional group was zero, the amount of the sample solution to be supplied to the sensor chip was set to 500 μL instead of 20 μL. Further, 70 μL of the mixed aqueous solution of 0.2 M EDC and 0.04 M NHS was added to another flow channel of the same sensor chip without immobilizing the sample, and then blocking treatment and washing treatment were carried out. Hereinafter, the obtained immobilization-treated sensor chip is referred to as an “immobilization-treated sensor chip A”.
# After adding human integrin αvβ5 for 10 minutes at 25° C., which was diluted to 30 nM using a HEPES buffer solution to which magnesium chloride was added to 5 mM, in each flow channel of the immobilization-treated sensor chip A prepared in (1) above, the same HEPES buffer solution (containing 5 mM magnesium chloride) was allowed to flow as a running buffer for 30 minutes, and measurement was carried out with Biacore 3000. Then, a regeneration treatment of removing human integrin αvβ5 was carried out by allowing a 0.5 M EDTA aqueous solution to flow through each flow channel for 10 minutes. Further, the above-described measurement process consisting of adding integrin for 10 minutes, allowing a running buffer to flow for 30 minutes, carrying out measurement with Biacore 3000, and carrying out regeneration treatment with 0.5 M EDTA aqueous solution was carried out in the same manner for 100 nM human integrin αvβ5, 300 nM human integrin αvβ5, and 1,000 nM human integrin αvβ5. Dissociation constant between the cyclic peptide and human integrin αvβ5 was calculated from the difference between the value measured by Biacore 3000 in the flow channel immobilized with the cyclic peptide and the value measured by Biacore 3000 in the flow channel unimmobilized with the cyclic peptide, in a case where each concentration of human integrin αvβ5 was allowed to flow, and the integrin binding property was evaluated according to the following evaluation standards. It is preferable that the evaluation result satisfies the evaluation standard A, B, or C.
Binder,dissociation constant [nM],dissociation constant (KD) [nM]
KKKGXIPRGDTFRXA (not fully specified; KKKG-(Pen)-IPRGDTFR(Dab(acetyl))A; thioether bond Pen-Dab(acetyl)) [Cyclic peptide 129],50 to 100,–
KKK[hCys]IPRGDVF[Dab(acetyl)″] (thioether 4-12) [Cyclic peptide 65],50 to 100,–
KKKGXIPRGDTFRXA (not fully specified; KKKG-(Pen)-IPRGDTFR(Lys(acetyl))A; thioether bond Pen-Lys(acetyl)) [Cyclic peptide 131],50 to 100,–
KKKGXIPRGDTFRXA (not fully specified; KKKG(Dab(acetyl))IPRGDTFR-(Pen)-A; thioether bond Dab(acetyl)-Pen) [Cyclic peptide 133],50 to 100,–
KKKGXIPRGDTFRXA (not fully specified; KKKG(Lys(acetyl))IPRGDTFR-(Pen)-A; thioether bond Lys(acetyl)-Pen) [Cyclic peptide 135],50 to 100,–
KKKGXIPRGDTFRCA (not fully specified; KKKG(Dab(acetyl))IPRGDTFR(C)A; thioether bond Dab(acetyl)-Cys) [Cyclic peptide 138],50 to 100,–
KKK[hCys]AIPRGDNFR[Dab(acetyl)]A (thioether 4-14) [Cyclic peptide 15],–,50 to 100
KKK[hCys]IPRGDNFRA[Dab](COCH2)A (thioether 4-14) [Cyclic peptide 16],–,50 to 100
KKK[hCys]DPRGDNFR[Dab](COCH2)A (thioether 4-13) [Cyclic peptide 22],–,50 to 100
KKK[hCys]IPRGDSFR[Dab](COCH2)A (thioether 4-13) [Cyclic peptide 25],–,50 to 100
KKK[hCys]IPRGDNYR[Dab](COCH2)A (thioether 4-13) [Cyclic peptide 26],–,50 to 100
KKK[hCys]AIPRGDNFRA[Dab](COCH2)A (thioether 4-15) [Cyclic peptide 17],–,50 to 100
KKK[hCys]AAIPRGDNFR[Dab](COCH2)A (thioether 4-15) [Cyclic peptide 18],–,50 to 100
KKKG[hCys]AIPRGDNFRA[Dab](COCH2)A (thioether 5-16) [Cyclic peptide 20],–,50 to 100
KKKA[hCys]EPRGDNYR[Dab(acetyl)″]D (thioether 5-14) [Cyclic peptide 42],–,50 to 100
KKKA[hCys]VPRGDNYR[Dab](COCH2)D (thioether 5-14) [Cyclic peptide 29],–,50 to 100

Binder,dissociation constant [nM],dissociation constant (KD) [nM]
KKKA[hCys]EPRGDNYE[Dab](COCH2)D (thioether 5-14) [Cyclic peptide 36],–,50 to 100
KKKG[hCys]EPRGDNYR[Dab](COCH2)D (thioether 5-14) [Cyclic peptide 37],–,50 to 100
KKKD[hCys]EPRGDNYR[Dab](COCH2)D (thioether 5-14) [Cyclic peptide 38],–,50 to 100
KKKA[hCys]EPRGDNYR[Dab(acetyl)″]G (thioether 5-14) [Cyclic peptide 40],–,50 to 100
KKKA[hCys]EPRGDNYR[Dab(acetyl)″]A (thioether 5-14) [Cyclic peptide 41],–,50 to 100
KKKA[hCys]EPRGDNYR[Dab(acetyl)″]E (thioether 5-14) [Cyclic peptide 43],–,50 to 100
KKK[hCys]EPRGDNYR[Dab(acetyl)″] (thioether 4-13) [Cyclic peptide 44],–,50 to 100
KKKA[hCys]EPRGDNYR[Dab(acetyl)″] (thioether 5-14) [Cyclic peptide 45],–,50 to 100
KKK[Dap(acetyl)]EPRGDNYR[hCys] (thioether 4-13) [Cyclic peptide 46],–,50 to 100
KKKA[Dap(acetyl)]EPRGDNYR[hCys] (thioether 5-14) [Cyclic peptide 47],–,50 to 100
KKK[hCys]EPRGDNYR[Dab(acetyl)″]-NH2 (thioether 4-13; N-terminus assumed; SMILES N=C(N)NCCC[C@@H]1NC(=O)[C@H](Cc2ccc(O)cc2)NC(=O)[C@H](CC(N)=O)NC(=O)[C@H](CC(=O)O)NC(=O)CNC(=O)[C@H](CCCNC(=N)N)NC(=O)[C@@H]2CCCN2C(=O)[C@H](CCC(=O)O)NC(=O)[C@@H](NC(=O)[C@H](CCCCN)NC(=O)[C@H](CCCCN)NC(=O)[C@@H](N)CCCCN)CCSCC(=O)NCC[C@@H](C(N)=O)NC1=O) [Cyclic peptide 49],–,50 to 100
KKK[Dap(acetyl)]EPRGDNYR[hCys]-NH2 (thioether 4-13) [Cyclic peptide 52],–,50 to 100
KKKA[Dap(acetyl)]EPRGDNYR[hCys]-NH2 (thioether 5-14) [Cyclic peptide 53],–,50 to 100
KKKG[hCys]IPRGDNF[Dab(acetyl)″]A (thioether 5-13) [Cyclic peptide 6],–,50 to 100
KKKGXIPRGDXFRXA (not fully specified; KKKG-(Hcy)-IPRGD-(HmS)-FR(Dab(acetyl))A; HmS = homoserine; thioether bond Hcy-Dab(acetyl)) [Cyclic peptide 73],50 to 100,–
KKKGXPRGDNFRXA (not fully specified; KKKG-(Hcy)-PRGDNFR(Dab(acetyl))A; thioether bond Hcy-Dab(acetyl)) [Cyclic peptide 8],–,50 to 100
